# Measured values published in the supplement of paper PMC9428881.
# ± gives the standard error.
# Experiment: background-corrected fluorescence of 3'-dye-labeled ssDNA relative to brightest sequence (3'-GCGCG) (fraction); higher = brighter dye fluorescence (less quenching)
# How it was run: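 Arrays of single-stranded DNA, with a 3' Cy3 or Cy5 dye beside each of 1024 permuted pentamers, were built on glass slides through light-directed phosphoramidite synthesis. They were washed for 2 h at r.t. in acetonitrile and scanned at 532 or 635 nm, once before and once after overnight ethylenediamine/ethanol deprotection. Fluorescence is reported after subtracting unlabeled-oligo background and normalizing to the brightest sequence. Averages cover 10 features per array and at least 3 syntheses.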
Sequence,background-corrected fluorescence (dye: Cy3 (3' terminal)),background-corrected fluorescence (dye: Cy5 (3' terminal))
TTTTTTGCTCATGATGATGATTTTTTTTTTTTTTTAGCCC [CCCGA],0.393 ± 0.022,0.304 ± 0.018
TTTTTTGATGCTCATGATGCTTTTTTTTTTTTTTTCAGCA [ACGAC],0.514 ± 0.019,0.448 ± 0.027
TTTTTTGAGCAGCATGCTCATTTTTTTTTTTTTTTCTTAG [GATTC],0.528 ± 0.014,0.395 ± 0.039
TTTTTGCAGCATCATCATCATTTTTTTTTTTTTTTTTGGG [GGGTT],0.661 ± 0.029,0.549 ± 0.029
TTTTTTGAGCAGCAGCATCATTTTTTTTTTTTTTTCTTTG [GTTTC],0.498 ± 0.024,0.343 ± 0.027
TTTTTGCATCAGCAGCAGCATTTTTTTTTTTTTTTTGTTT,0.511 ± 0.028,0.396 ± 0.06
TTTTTTGCTGCTCATCATGCTTTTTTTTTTTTTTTAAGGA [AGGAA],0.779 ± 0.02,0.635 ± 0.045
TTTTTTCATGCTGAGCATGATTTTTTTTTTTTTTTGACTC [CTCAG],0.419 ± 0.021,0.317 ± 0.028
TTTTTGCATCATGCTGATGCTTTTTTTTTTTTTTTTGACA [ACAGT],0.527 ± 0.019,0.411 ± 0.026
TTTTTTCAGCATCATGCTGATTTTTTTTTTTTTTTGTGAC [CAGTG],0.483 ± 0.02,0.387 ± 0.064
TTTTTTGCTGCTGATGATGCTTTTTTTTTTTTTTTAACCA [ACCAA],0.492 ± 0.017,0.375 ± 0.053
TTTTTGCATGAGCATGATGATTTTTTTTTTTTTTTTCTCC [CCTCT],0.335 ± 0.042,0.268 ± 0.019
TTTTTTGCTCATGATGATGCTTTTTTTTTTTTTTTAGCCA [ACCGA],0.5 ± 0.028,0.394 ± 0.023
TTTTTTGCTCATGAGCATGCTTTTTTTTTTTTTTTAGCTA [ATCGA],0.512 ± 0.0099,0.4 ± 0.019
TTTTTTCATGATCATGATGATTTTTTTTTTTTTTTGCGCC [CCGCG],0.505 ± 0.024,0.4 ± 0.041
TTTTTTCAGCATGATCATGCTTTTTTTTTTTTTTTGTCGA [AGCTG],0.645 ± 0.017,0.548 ± 0.034
TTTTTGCATGATGCGCATGCTTTTTTTTTTTTTTTTCATA [ATACT],0.518 ± 0.019,0.396 ± 0.024
TTTTTTGAGCAGCATGCTGATTTTTTTTTTTTTTTCTTAC [CATTC],0.404 ± 0.026,0.3 ± 0.017
TTTTTTGCTGCGCATGCTCATTTTTTTTTTTTTTTAATAG [GATAA],0.535 ± 0.0083,0.408 ± 0.017
TTTTTTGATGCTCAGCATGATTTTTTTTTTTTTTTCAGTC [CTGAC],0.477 ± 0.0054,0.373 ± 0.086
TTTTTGCATCAGCATGAGCATTTTTTTTTTTTTTTTGTCT [TCTGT],0.48 ± 0.021,0.367 ± 0.028
TTTTTTCAGCATCAGCATCATTTTTTTTTTTTTTTGTGTG,0.604 ± 0.017,0.43 ± 0.03
TTTTTGCATCATGCGCATCATTTTTTTTTTTTTTTTGATG [GTAGT],0.53 ± 0.0055,0.409 ± 0.037

Sequence,background-corrected fluorescence (dye: Cy3 (3' terminal)),background-corrected fluorescence (dye: Cy5 (3' terminal))
TTTTTTCAGCAGCATGCGCATTTTTTTTTTTTTTTGTTAT [TATTG],0.546 ± 0.048,0.389 ± 0.017
TTTTTTGATGCTCATCATGCTTTTTTTTTTTTTTTCAGGA [AGGAC],0.705 ± 0.027,0.6 ± 0.034
TTTTTTCATCATCATCATGCTTTTTTTTTTTTTTTGGGGA [AGGGG],0.753 ± 0.014,0.757 ± 0.038
TTTTTGCATGATGCTCATCATTTTTTTTTTTTTTTTCAGG [GGACT],0.606 ± 0.034,0.486 ± 0.034
TTTTTTCAGCAGCATGAGCATTTTTTTTTTTTTTTGTTCT [TCTTG],0.459 ± 0.012,0.367 ± 0.027
TTTTTGCATGCGCAGCATGCTTTTTTTTTTTTTTTTATTA [ATTAT],0.545 ± 0.017,0.409 ± 0.035
TTTTTGCATCATGATGAGCATTTTTTTTTTTTTTTTGCCT [TCCGT],0.444 ± 0.011,0.356 ± 0.021
TTTTTGCATCATCAGCATGCTTTTTTTTTTTTTTTTGGTA [ATGGT],0.609 ± 0.0091,0.492 ± 0.033
TTTTTTCATCAGCATGCGCATTTTTTTTTTTTTTTGGTAT [TATGG],0.525 ± 0.017,0.411 ± 0.025
TTTTTTGCTCATGATCATGATTTTTTTTTTTTTTTAGCGC [CGCGA],0.65 ± 0.023,0.523 ± 0.038
TTTTTGCATCAGCATGATCATTTTTTTTTTTTTTTTGTCG [GCTGT],0.552 ± 0.029,0.392 ± 0.023
TTTTTTGCTGCTGCTCATCATTTTTTTTTTTTTTTAAAGG [GGAAA],0.646 ± 0.026,0.502 ± 0.032
TTTTTGCAGCATGCGCATGATTTTTTTTTTTTTTTTTATC [CTATT],0.473 ± 0.024,0.312 ± 0.018
TTTTTTCATCATCATGCTGATTTTTTTTTTTTTTTGGGAC [CAGGG],0.536 ± 0.029,0.401 ± 0.025
TTTTTTGATCATGCTGAGCATTTTTTTTTTTTTTTCGACT [TCAGC],0.488 ± 0.019,0.363 ± 0.028
TTTTTGCATCAGCATCAGCATTTTTTTTTTTTTTTTGTGT,0.603 ± 0.025,0.497 ± 0.026
TTTTTTCAGCATGATGATGATTTTTTTTTTTTTTTGTCCC [CCCTG],0.38 ± 0.023,0.294 ± 0.019
TTTTTTCATGATGATCATCATTTTTTTTTTTTTTTGCCGG [GGCCG],0.665 ± 0.025,0.564 ± 0.072
TTTTTTGAGCATGCTCATGATTTTTTTTTTTTTTTCTAGC [CGATC],0.508 ± 0.033,0.407 ± 0.04
TTTTTTGCTCATGCTGAGCATTTTTTTTTTTTTTTAGACT [TCAGA],0.519 ± 0.025,0.389 ± 0.039
TTTTTGCATCATCATCATGATTTTTTTTTTTTTTTTGGGC [CGGGT],0.591 ± 0.026,0.516 ± 0.027
TTTTTTCATGAGCAGCATGATTTTTTTTTTTTTTTGCTTC [CTTCG],0.388 ± 0.041,0.285 ± 0.024
TTTTTTGAGCATGATGAGCATTTTTTTTTTTTTTTCTCCT [TCCTC],0.41 ± 0.018,0.33 ± 0.032

Sequence,background-corrected fluorescence (dye: Cy3 (3' terminal)),background-corrected fluorescence (dye: Cy5 (3' terminal))
TTTTTTGAGCATCATGCTGATTTTTTTTTTTTTTTCTGAC [CAGTC],0.465 ± 0.024,0.354 ± 0.033
TTTTTTGCGCAGCATGATGCTTTTTTTTTTTTTTTATTCA [ACTTA],0.484 ± 0.035,0.351 ± 0.021
TTTTTTCAGCATGATGCTCATTTTTTTTTTTTTTTGTCAG [GACTG],0.546 ± 0.028,0.404 ± 0.051
TTTTTTGATGCGCATCATCATTTTTTTTTTTTTTTCATGG [GGTAC],0.6391 ± 0.0053,0.521 ± 0.075
TTTTTTGCTCATCATGAGCATTTTTTTTTTTTTTTAGGCT [TCGGA],0.596 ± 0.014,0.435 ± 0.028
TTTTTTGCTGCTGCGCATCATTTTTTTTTTTTTTTAAATG [GTAAA],0.499 ± 0.015,0.375 ± 0.035
TTTTTGCATGCGCATCATGATTTTTTTTTTTTTTTTATGC [CGTAT],0.5 ± 0.026,0.377 ± 0.024
TTTTTTGATGATGATGCTCATTTTTTTTTTTTTTTCCCAG [GACCC],0.504 ± 0.0073,0.374 ± 0.025
TTTTTTGCTGCTGCTGAGCATTTTTTTTTTTTTTTAAACT [TCAAA],0.496 ± 0.0053,0.349 ± 0.028
TTTTTTCATGATGCTGAGCATTTTTTTTTTTTTTTGCACT [TCACG],0.482 ± 0.048,0.339 ± 0.024
TTTTTTGCTCATGCTCATGCTTTTTTTTTTTTTTTAGAGA,0.633 ± 0.031,0.519 ± 0.029
TTTTTTGATCAGCATGAGCATTTTTTTTTTTTTTTCGTCT [TCTGC],0.485 ± 0.02,0.36 ± 0.015
TTTTTGCATCAGCATGCGCATTTTTTTTTTTTTTTTGTAT [TATGT],0.53 ± 0.024,0.418 ± 0.031
TTTTTTGAGCATCATGCTGCTTTTTTTTTTTTTTTCTGAA [AAGTC],0.575 ± 0.026,0.514 ± 0.029
TTTTTTGCTGCTCATCATGATTTTTTTTTTTTTTTAAGGC [CGGAA],0.6269 ± 0.0056,0.492 ± 0.038
TTTTTGCATGCGCATGCTCATTTTTTTTTTTTTTTTATAG [GATAT],0.548 ± 0.02,0.418 ± 0.032
TTTTTGCAGCATGATCATCATTTTTTTTTTTTTTTTTCGG [GGCTT],0.59 ± 0.022,0.485 ± 0.024
TTTTTTGCTGATGCGCATGATTTTTTTTTTTTTTTACATC [CTACA],0.392 ± 0.027,0.322 ± 0.018
TTTTTTGCTGATGCTCAGCATTTTTTTTTTTTTTTACAGT [TGACA],0.629 ± 0.039,0.474 ± 0.03
TTTTTGCAGCATGATGCTGATTTTTTTTTTTTTTTTTCAC [CACTT],0.385 ± 0.01,0.289 ± 0.016
TTTTTTCATGCTGATGCGCATTTTTTTTTTTTTTTGACAT [TACAG],0.536 ± 0.019,0.388 ± 0.025
TTTTTTCATGATGATGCTCATTTTTTTTTTTTTTTGCCAG [GACCG],0.519 ± 0.015,0.384 ± 0.031
